Test results published in PMC5892887.

What was measured:
[1] = test system: *I (gp32 lacking C-domain) (bacteriophage T4); assay: single-molecule DNA stretching; conditions: Stopped-flow: 10 mM Tris-HCl pH 8.3, 0.1 mM Na2EDTA, 25 °C, NaCl varied (0.02 M for typical traces); DNA stretching: 0.1 M Na+
1-295 (bacteriophage T4) = assay: single-molecule DNA stretching; conditions: Stopped-flow: 10 mM Tris-HCl pH 8.3, 0.1 mM Na2EDTA, 25 °C, NaCl varied (0.02 M for typical traces); DNA stretching: 0.1 M Na+
[2] = test system: gp32 (full-length gene 32 protein) (bacteriophage T4); assay: single-molecule DNA stretching; conditions: Stopped-flow: 10 mM Tris-HCl pH 8.3, 0.1 mM Na2EDTA, 25 °C, NaCl varied (0.02 M for typical traces); DNA stretching: 0.1 M Na+
[3] = test system: ΔPR201 (bacteriophage T4); assay: single-molecule DNA stretching; conditions: Stopped-flow: 10 mM Tris-HCl pH 8.3, 0.1 mM Na2EDTA, 25 °C, NaCl varied (0.02 M for typical traces); DNA stretching: 0.1 M Na+
[4] = target: Core domain of bacteriophage T4 gene 32 protein (*III; protein minus both N- and C-domains) (bacteriophage T4) (UniProt P03695); assay: cross-linking + other: MALDI mass spectrometry; MALDI mass-spectroscopic analysis of the EDC/NHS cross-linked reaction mixture of CTD and core domain
[5] = target: Core domain of bacteriophage T4 gene 32 protein (*III; protein minus both N- and C-domains) (bacteriophage T4) (UniProt P03695); assay: cross-linking; EDC/NHS zero-length cross-linking in solution, read by SDS-PAGE; 20 uM CTD and 4 uM core domain (*III) (5:1), 40 mM MES pH 6.0, 5% glycerol, 0.5 mM EDC, 1.25 mM NHS, room temperature; also with rising p(dT)7 or NaCl

Substance | Ka [1] [M⁻¹] | Ka (1-295 (bacteriophage T4)) [M⁻¹] | Ka [2] [M⁻¹] | Ka [3] [M⁻¹] | stoichiometry N [4] | percent inhibition of cross-linking at [p(dT)7]:[core domain] of 1 [5] [%] | percent inhibition of cross-linking with 30 mM NaCl [5] [%]
λ-DNA, single-stranded (force-melted) | 1.5e+06 | 99300 | 33600 | 102000 |  |  | 
C-terminal domain (CTD) of bacteriophage T4 gene 32 protein (domain or fragment) |  |  |  |  | 1 | 50 | 50
λ-DNA, double-stranded |  | 5950 |  | 4390 |  |  | 
